Results as given in patent publication US20230399394A1 (SUNSHINE GUOJIAN PHARMACEUTICAL SHANGHAI, published 2023).

T1: IL-33 mutant protein S60A (human, UniProt O95760 112-270)
T1 construct: Prokaryotic expression; also called 560A
T1 chain: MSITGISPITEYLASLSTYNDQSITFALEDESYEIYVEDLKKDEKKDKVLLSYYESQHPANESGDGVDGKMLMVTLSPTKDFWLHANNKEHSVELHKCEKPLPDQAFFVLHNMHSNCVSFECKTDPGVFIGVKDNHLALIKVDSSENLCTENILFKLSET

T2: IL-33 mutant protein L51A (human, UniProt O95760 112-270)
T2 construct: Prokaryotic expression
T2 chain: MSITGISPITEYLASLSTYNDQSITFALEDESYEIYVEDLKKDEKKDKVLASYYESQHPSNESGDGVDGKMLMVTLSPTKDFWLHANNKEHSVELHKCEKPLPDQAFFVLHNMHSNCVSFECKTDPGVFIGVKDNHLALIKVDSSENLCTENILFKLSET

T3: IL-33 protein without any mutation (WT) (human, UniProt O95760 112-270)
T3 construct: Control of the alanine scan (four runs WT-1 to WT-4); also called WT-1; WT-2
T3 sequence: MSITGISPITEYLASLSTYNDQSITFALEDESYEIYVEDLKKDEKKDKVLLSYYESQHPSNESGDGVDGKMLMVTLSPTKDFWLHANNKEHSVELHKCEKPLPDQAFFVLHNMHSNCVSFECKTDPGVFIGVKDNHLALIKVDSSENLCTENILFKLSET

T4: Human IL-33-his (human, UniProt O95760 112-270, biotinylated with EZ-Link NHS-Biotin where used as IL-33-his-biotin)
T4 construct: Used plain (SPR, cell assays) and biotinylated (ELISA); also called IL-33-his-biotin
T4 sequence: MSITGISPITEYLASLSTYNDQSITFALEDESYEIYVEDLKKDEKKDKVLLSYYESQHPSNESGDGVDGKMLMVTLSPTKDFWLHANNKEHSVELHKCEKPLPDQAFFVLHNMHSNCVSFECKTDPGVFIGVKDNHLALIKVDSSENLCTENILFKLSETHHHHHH

T5: IL-33 mutant protein K46A (human, UniProt O95760 112-270)
T5 construct: Prokaryotic expression
T5 chain: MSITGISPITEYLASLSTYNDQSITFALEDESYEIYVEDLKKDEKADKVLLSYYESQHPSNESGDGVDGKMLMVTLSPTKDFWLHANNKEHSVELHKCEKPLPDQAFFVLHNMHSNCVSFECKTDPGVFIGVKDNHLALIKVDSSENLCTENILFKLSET

T6: Cynomolgus IL-33-his (cynomolgus, UniProt A0A2K5W3I1 112-269, biotinylated in the ELISA of Example 6)
T6 construct: Bought protein; also called cynomolgus IL-33 protein; Cynomolgus monkeys IL-33
T6 sequence: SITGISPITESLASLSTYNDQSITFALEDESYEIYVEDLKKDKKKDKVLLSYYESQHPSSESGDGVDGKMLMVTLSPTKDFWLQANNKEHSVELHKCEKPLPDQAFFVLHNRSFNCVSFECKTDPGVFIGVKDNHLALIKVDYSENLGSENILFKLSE


Assays:
[1] = biological target: T1, IL-33 mutant protein S60A; test: ELISA as Example 9; row S60A
Description: (§1) SA protein was diluted to 2 μg/mL to coat ELISA plate at 100 μL/well overnight at 4° C. The plate was washed with PBST (PBS containing 0.05% Tween20) for 3 times, and blocked with 2% BSA prepared in PBS at 200 μL/well, at room temperature for 2 h. After the plate was washed twice with PBST, IL-33-his-biotin protein was diluted to 1 μg/mL with 1% BSA prepared in PBST, and was added to ELISA plate at 100 μL/well. The plate was incubated at room temperature for 1 h, and each monoclonal antibody was diluted with 1% BSA prepared in PBST in a 3-fold gradient. The highest concentration of antibody was 10 μg/mL, and the antibody was diluted for 12 gradients. Each diluted monoclonal antibody was added to ELISA wells with 100 μL/well, and the plate was incubated at room temperature for 1 h. Each sample was added to duplicate wells in parallel. The plate was washed with PBST for 3 times, and HRP-anti human IgG Fc secondary antibody prepared with PBST was diluted at an appropriate ratio, and was added to ELISA wells at 100 μL/well. […] Each reaction solution was shaken uniformly and OD450 nm was read on a microplate reader. The data was analyzed and EC₅₀ was calculated.
(§2) Subsequently, according to the experimental method of Example 9, the affinity of the above mutant proteins to 874F7-Hu1 was determined, and IL-33 proteins (WT-1, WT-2, WT-3, and WT-4) without any mutation were set as controls.

[2] = biological target: T2, IL-33 mutant protein L51A; test: ELISA as Example 9; row L51A against WT-2
Description: as §1, §2

[3] = biological target: T3, IL-33 protein without any mutation (WT); test: ELISA as Example 9; row WT-1
Description: as §1, §2

Human IL-33-his = biological target: T4, Human IL-33-his; test: ELISA as Example 9, IL-33-his-biotin on streptavidin plate
[4] = biological target: T5, IL-33 mutant protein K46A; test: ELISA as Example 9; row K46A
Description: as §1, §2

[5] = biological target: T3, IL-33 protein without any mutation (WT); test: ELISA as Example 9; row WT-4
Description: as §1, §2

[6] = biological target: T2, IL-33 mutant protein L51A; test: ELISA as Example 9; row L51A
Description: as §1, §2

Cynomolgus IL-33-his = biological target: T6, Cynomolgus IL-33-his; test: indirect ELISA, biotinylated cynomolgus IL-33-his on streptavidin plate
Description: The binding ability of murine antibody to cynomolgus IL-33 was determined by indirect enzyme-linked immunosorbent assay (ELISA). The specific methods were as follows: The plate was pre-coated by biotin-avidin (SA) which was diluted in coating solution (50 mM carbonate coating buffer, pH 9.6) to 2 μg/ml at 4° C. overnight. The plate was blocked with 5% skim milk powder at 37° C. for 2 hours, and stored at −80° C. for later use. Biotinylated recombinant cynomolgus IL-33-his protein was diluted to 1 μg/ml in coating solution (50 mM carbonate coating buffer, pH 9.6) and was added at 100 μl/well to the pre-coated SA plate for 0.5 h at 37° C. After washing the plate with PBST for 3 times, the antibodies to be tested were diluted by gradient with 1% BSA buffer and added into the blocked plate with 100 μl/well, and incubated at 37° C. for 1 hour. The plate was washed with PBST for 3 times, and the HRP-labeled goat anti-mouse IgG was added and placed at 37° C. for 30 min. After washing the plate with PBST for 3 times, the plate was patted on the absorbent paper to remove residual droplets as far as possible. […] OD values were read at 450 nm on the microplate reader to analyze the binding ability of the antibody to the target antigen cynomolgus IL-33-his.

Row | Binder | EC50 [1] [nM] | Affinity decline ratio [2] [fold] | EC50 [3] [nM] | EC50 (Human IL-33-his) [nM] | EC50 [4] [nM] | EC50 [5] [nM] | EC50 [6] [nM] | EC50 (Cynomolgus IL-33-his) [nM]
1 | 874F7-Hu1 (antibody, human IgG4 S228P, kappa, also called 874F7-Hul; humanized antibody 874F7-Hu1) heavy: not shown light: DIQMTQSPSSVSASVGDRVTITCLASQTIGAWLAWYQQKPGKSPKLLIYAATRLADGVPSRFSGSGSGTDFTLTISSLQPEDFATYYCQQLDSSPYTFGQGTKVEIKRTVAAPSVFIFPPSDEQLKSGTASVVCLLNNFYPREAKVQWKVDNALQSGNSQESVTEQDSKDSTYSLSSTLTLSKADYEKHKVYACEVTHQGLSSPVTKSFNRGEC | 5.31 | 6.8 | 0.23 | 0.129 | 0.23 | 0.12 | 0.91 | –
2 | 874F7 (antibody, V domains shown, Murine hybridoma antibody purified on Protein G; also called murine antibody 874F7) VH: QVQLKESGPGLVAPSHSLSITCNVSGFSLSKYGVHWIRQIPGRGLDWLGVLRAGGSTGYNSALMSRLSISKDSSKSQVFLKMNDLRTDDTAVYFCVRDHYYYSSYGGFVYWGQGTLVTVSA VL: DIQMTQSPASQSASLGESVTITCLASQTIGAWLAWYRQQPGKSPQLLIYAATRLADGVPSRFSGSGSGTEFSFKINNLQAEDFVSYYCQQLDSSPYTFGGGTRLEM | – | – | – | – | – | – | – | 0.03
